What was measured:
HEK293 cells [1] = assay: Mass levels of SPP in HEK293 cells after transfection with SPHK2; format: cell-based, human; conditions: HEK 293 cells after transfection
Description: Mass levels of SPP in HEK293 cells transfected with an empty vector (open bars) or with mSPHK2 (filled bars) or with hSPHK2 (hatched bars) were measured as described hereinbelow. The data are expressed as pmol/nmol phospholipid.
Cells were washed with PBS and scraped in 1 ml of methanol containing 2.5 μl concentrated HCl. Lipids were extracted by adding 2 ml chloroform/1M NaCl (1:1, v/v) and 100 μl 3N NaOH and phases separated. The basic aqueous phase containing SPP, and devoid of sphingosine, ceramide, and the majority of phospholipids, was transferred to a siliconized glass tube. The organic phase was re-extracted with 1 ml methanol/1M NaCl (1:1, v/v) plus 50 μl 3N NaOH, and the aqueous fractions were combined. Mass measurement on SPP in the aqueous phase and total phospholipids in the organic phase were measured exactly as described in Edsall, L. C., Pirianov, G. G., and Spiegel, S., J. Neurosci., 17, (1997) 6952-6960; Edsall, L. C., and Spiegel, S., Anal. Biochem., 272, (1999) 80-86).

HEK293 cells [2] = assay: SPHK activity in HEK293 cells transiently transfected with SPHK expression vectors (cytosol and particulate fractions); format: cell-based, human; conditions: 24 hours after transfection of HEK293 cells
Description: In FIG. 3A, HEK 293 cells were transiently transfected with an empty vector or with mSPHK2 or hSPHK2 expression vectors. After 24 hours, SPHK activity was measured in cytosol (open bars) and particulate fractions (filled bars). The data are means±S.D. Parental and vector-transfected cells had basal SPHK activities of 26 and 37 pmol/min/mg, respectively.
Human embryonic kidney cells (HEK293, ATCC CRL-1573) and NIH 3T3 fibroblasts (ATCC CRL-1658) were cultured as described in Olivera, A., Kohama, T., Edsall, L. C., Nava, V., Cuvillier, O., Poulton, S., and Spiegel, S., J. Cell Biol., 147 (1999) 545-558. HEK293 cells were seeded at 6×10^5 per well in poly-L-lysine coated 6 well plates. After 24 hours, cells were transfected with 1 μg of vector alone or with vectors containing sphingosine kinase constructs and 6 μl of “Lipofectamine PLUS” reagent plus 4 μl of “Lipofectamine” reagent per well. One to three days after transfection, cells were harvested and lysed by freeze-thawing as described in Kohama, T., Olivera, A., Edsall, L., Nagiec, M. M., Dickson, R., and Spiegel, S., J. Biol. Chem., 273, (1998), 23722-23728. In some experiments, cell lysates were fractionated into cytosol and membrane fractions by centrifugation at 100,000×g for 60 minutes. SPHK activity was determined in the presence of sphingosine, prepared as a complex with 4 mg/ml BSA, and [g-32P] ATP in kinase buffer (Olivera, A. and Spiegel, S. in Methods in Molecular Biology, (Bird, I. M. ed.), (1998), Vol. 105, 233-242, Humana Press, Inc., Totowa, N.J.), containing 200 mM KCl, unless indicated otherwise. 32P-SPP was separated by TLC and quantified with a phosphoimager as previously described.

B1: hSPHK2: human sphingosine kinase type 2, polypeptide of 618 amino acids (SEQ ID NO 14) (protein)
chain: MAPPPPPLAASTPLLHGEFGSYPARGPRFALTLTSQALHIQRLRPKPEARPRGGLVPLAEVSGCCTLRSRSPSDSAAYFCIYTYPRGRRGARRRATRTFRADGAATYEENRAEAQRWATALTCLLRGLPLPGDGEITPDLLPRPPRLLLLVNPFGGRGLAWQWCKNHVLPMISEAGLSFNLIQTERQNHARELVQGLSLSEWDGIVTVSGDGLLHEVLNGLLDRPDWEEAVKMPVGILPCGSGNALAGAVNQHGGFEPALGLDLLLNCSLLLCRGGGHPLDLLSVTLASGSRCFSFLSVAWGFVSDVDIQSERFRALGSARFTLGTVLGLATLHTYRGRLSYLPATVEPASPTPAHSLPRAKSELTLTPDPAPPMAHSPLHRSVSDLPLPLPQPALASPGSPEPLPILSLNGGGPELAGDWGGAGDAPLSPDPLLSSPPGSPKAALHSPVSEGAPVIPPSSGLPLPTPDARVGASTCGPPDHLLPPLGTPLPPDWVTLEGDFVLMLAISPSHLGADLVAAPHARFDDGLVHLCWVRSGISRAALLRLFLAMERGSHFSLGCPQLGYAAARAFRLEPLTPRGVLTVDGEQVEYGPLQAQMHPGIGTLLTGPPGCPGREP
increase in SPP (HEK293 cells [1]): 3.3 fold
increase of in vitro SPHK activity over basal levels (HEK293 cells [2]): 35 fold

— patent US6800470B2, “Mammalian sphingosine kinase type 2 isoforms, cloning, expression and methods of use thereof” (Sankyo Company, Ltd., priority 2000, dated 2004)
